Laboratory results taken from patent US20240182549A1, “PEPTIDES AND ANTIBODY FUSIONS THAT BIND TO SARS-COV-2 AND METHODS OF USING SAME” (priority 2021, published 2024).
Ends that are not written are not given here.

Assays:
[1] = target: T1, S protein ECD (Severe acute respiratory syndrome coronavirus 2, UniProt P0DTC2, K986P/R682S/R683S/R685S/V987P)
[2] = target: T1, S protein ECD; remark: listed apart in the source
[3] = target: SARS-CoV-2 S protein (Severe acute respiratory syndrome coronavirus 2, UniProt P0DTC2, K986P/R682S/R683S/R685S/V987P)

Substance	peptide-phage binding to ECD blocked by NTD-binding antibodies [1]	peptide-phage binding to ECD blocked by RBD-binding antibodies [1]	binding to S protein ectodomain (in words) [2]	affinity improvement over 15033 [3]
p102 (ECWEWSYQLQEWSPCP; not fully specified; cysteine pairing not given here)	not by those that bound to the NTD	blocked	–	–
p16 (DFDFAENWMEQLKVML; not fully specified)	blocked	not by those that bound to the ACE2-binding site of the RBD	did not exhibit detectable binding	significant affinity improvement
